Reference: the supplement of paper PMC10567573

B1: CD207 (parent)
chain: MTVEKEAPDAHFTVDKQNISLWPR

Variants of: B1
Assay: protein stability index of a GFP-peptide fusion (GPS, HEK-293T) (PSI 1-6); higher = more stable
Details: c terminus: a fixed tail appended
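Also: lentivirally expressed fusions sorted by FACS into six bins by GFP to DsRed ratio, PSI derived from sequencing read proportions per bin multiplied by bin number.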

Row | Variant | protein stability index
1 | MTVEKWAPDAHFTVDKQNISLWPR [E6W] | 2.29
2 | MTVEKYAPDAHFTVDKQNISLWPR [E6Y] | 2.38
3 | MTVEKEAPDAEFTVDKQNISLWPR [H11E] | 4.08
4 | MTVEKEAPDAWFTVDKQNISLWPR [H11W] | 1.97
5 | MTVEKEAPDAMFTVDKQNISLWPR [H11M] | 2.88
6 | MTVEKEAPDASFTVDKQNISLWPR [H11S] | 3.58
7 | MTVEKEAPDATFTVDKQNISLWPR [H11T] | 3.8
8 | MTVEKEAPDALFTVDKQNISLWPR [H11L] | 3
9 | MTVEKEAPDANFTVDKQNISLWPR [H11N] | 3.68
10 | MTVEKEAPDAPFTVDKQNISLWPR [H11P] | 3.55
11 | MTVEKEAPDACFTVDKQNISLWPR [H11C] | 3.01
12 | MTVEKEAPDAQFTVDKQNISLWPR [H11Q] | 2.95
13 | MTVEKEAPDAAFTVDKQNISLWPR [H11A] | 3.38
14 | MTVEKEAPDAVFTVDKQNISLWPR [H11V] | 3.55
15 | MTVEKEAPDARFTVDKQNISLWPR [H11R] | 2.79
16 | MTVEKEAPDAYFTVDKQNISLWPR [H11Y] | 2.28
17 | MTVEKEAPDAGFTVDKQNISLWPR [H11G] | 3.06
18 | MTVEKEAPDAKFTVDKQNISLWPR [H11K] | 3.4
19 | MTVEKEAPDAIFTVDKQNISLWPR [H11I] | 2.89
20 | MTVEKEAPDADFTVDKQNISLWPR [H11D] | 3.58
21 | MTVEKEAPDAHFTVDKCNISLWPR [Q17C] | 2.8
22 | MTVEKEAPDAHFTVDKDNISLWPR [Q17D] | 3.73
23 | MTVEKEAPDAHFTVDKANISLWPR [Q17A] | 3.66
24 | MTVEKEAPDAHCTVDKQNISLWPR [F12C] | 3.72

Row | Variant | protein stability index
25 | MTVEKEAPDAHNTVDKQNISLWPR [F12N] | 3.13
26 | MTVEKEAPDAHVTVDKQNISLWPR [F12V] | 3.74
27 | MTVEKEAPDAHSTVDKQNISLWPR [F12S] | 4.1
28 | MTVEKEAPDAHWTVDKQNISLWPR [F12W] | 3.35
29 | MTVEKEAPDAHRTVDKQNISLWPR [F12R] | 4.04
30 | MTVEKEAPDAHKTVDKQNISLWPR [F12K] | 4.05
31 | MTVEKEAPDAHGTVDKQNISLWPR [F12G] | 4.03
32 | MTVEKEAPDAHITVDKQNISLWPR [F12I] | 3.96
33 | MTVEKEAPDAHETVDKQNISLWPR [F12E] | 4.38
34 | MTVEKEAPDAHLTVDKQNISLWPR [F12L] | 3.72
35 | MTVEKEAPDAHDTVDKQNISLWPR [F12D] | 4.92
36 | MTVEKEAPDAHPTVDKQNISLWPR [F12P] | 4.66
37 | MTVEKEAPDAHMTVDKQNISLWPR [F12M] | 4.14
38 | MTVEKEAPDAHQTVDKQNISLWPR [F12Q] | 4.5
39 | MTVEKEAPDAHYTVDKQNISLWPR [F12Y] | 3.16
40 | MTVEKEAPDAHATVDKQNISLWPR [F12A] | 3.78
41 | MTVEKEAPDAHHTVDKQNISLWPR [F12H] | 4.02
42 | MTVEKEAPDAHTTVDKQNISLWPR [F12T] | 4.09
43 | MTVEKEAPDAHFTVDQQNISLWPR [K16Q] | 3.01
44 | MTVEKEAPDAHFTVDLQNISLWPR [K16L] | 2.62
45 | MTVEKEAPDAHFTVDCQNISLWPR [K16C] | 3.76
46 | MTVEKEAPDAHFTVDMQNISLWPR [K16M] | 2.83
47 | MTVEKEAPDAHFTVDVQNISLWPR [K16V] | 2.93
48 | MTVEKEAPDAHFTVDHQNISLWPR [K16H] | 3.53

Row | Variant | protein stability index
49 | MTVEKEAPDAHFTVDYQNISLWPR [K16Y] | 2.83
50 | MTVEKEAPDAHFTVDTQNISLWPR [K16T] | 3.18
51 | MTVEKEAPDAHFTVDFQNISLWPR [K16F] | 2.95
52 | MTVEKEAPDAHFTVDEQNISLWPR [K16E] | 4.13
53 | MTVEKEAPDAHFTVDRQNISLWPR [K16R] | 3.26
54 | MTVEKEAPDAHFTVDIQNISLWPR [K16I] | 2.39
55 | MTVEKEAPDAHFTVDPQNISLWPR [K16P] | 3.26
56 | MTVEKEAPDAHFTVDAQNISLWPR [K16A] | 3.52
57 | MTVEKEAPDAHFTVDNQNISLWPR [K16N] | 3.49
58 | MTVEKEAPDAHFTVDDQNISLWPR [K16D] | 3.35
59 | MTVEKEAPDAHFTVDWQNISLWPR [K16W] | 2
60 | MTVEKEAPDAHFTVDGQNISLWPR [K16G] | 3.8
61 | MTVEKEAPDAHFTVDSQNISLWPR [K16S] | 3.79
62 | MTVEKEAPDAHFTADKQNISLWPR [V14A] | 3.45
63 | MTVEKEAPDAHFTFDKQNISLWPR [V14F] | 2.42
64 | MTVEKEAPDAHFTKDKQNISLWPR [V14K] | 3.41
65 | MTVEKEAPDAHFTRDKQNISLWPR [V14R] | 3.05
66 | MTVEKEAPDAHFTLDKQNISLWPR [V14L] | 2.93
67 | MTVEKEAPDAHFTEDKQNISLWPR [V14E] | 3.79
68 | MTVEKEAPDAHFTYDKQNISLWPR [V14Y] | 2.48
69 | MTVEKEAPDAHFTSDKQNISLWPR [V14S] | 3.81
70 | MTVEKEAPDAHFTMDKQNISLWPR [V14M] | 3.18
71 | MTVEKEAPDAHFTIDKQNISLWPR [V14I] | 3.45
72 | MTVEKEAPDAHFTGDKQNISLWPR [V14G] | 2.35

Row | Variant | protein stability index
73 | MTVEKEAPDAHFTTDKQNISLWPR [V14T] | 3.82
74 | MTVEKEAPDAHFTDDKQNISLWPR [V14D] | 4.11
75 | MTVEKEAPDAHFTNDKQNISLWPR [V14N] | 3.36
76 | MTVEKEAPDAHFTPDKQNISLWPR [V14P] | 3.79
77 | MTVEKEAPDAHFTWDKQNISLWPR [V14W] | 2.65
78 | MTVEKEAPDAHFTHDKQNISLWPR [V14H] | 3.13
79 | MTVEKEAPDAHFTCDKQNISLWPR [V14C] | 3.27
80 | MTVEKEAPDAHFTQDKQNISLWPR [V14Q] | 3.85
81 | MTVEKEAPKAHFTVDKQNISLWPR [D9K] | 2.44
82 | MTVEKEAPAAHFTVDKQNISLWPR [D9A] | 2.79
83 | MTVEKEAPTAHFTVDKQNISLWPR [D9T] | 2.94
84 | MTVEKEAPWAHFTVDKQNISLWPR [D9W] | 2.91
85 | MTVEKEAPQAHFTVDKQNISLWPR [D9Q] | 3.23
86 | MTVEKEAPFAHFTVDKQNISLWPR [D9F] | 2.37
87 | MTVEKEAPYAHFTVDKQNISLWPR [D9Y] | 2.42
88 | MTVEKEAPHAHFTVDKQNISLWPR [D9H] | 2.89
89 | MTVEKEAPMAHFTVDKQNISLWPR [D9M] | 2.56
90 | MTVEKEAPPAHFTVDKQNISLWPR [D9P] | 2.95
91 | MTVEKEAPEAHFTVDKQNISLWPR [D9E] | 3.15
92 | MTVEKEAPLAHFTVDKQNISLWPR [D9L] | 2.38
93 | MTVEKEAPNAHFTVDKQNISLWPR [D9N] | 3.27
94 | MTVEKEAPCAHFTVDKQNISLWPR [D9C] | 3.01
